For experiment [1], the target named is T1, Human B7H4 (his tag), Sino Biological #10738-H08H (human, UniProt Q7Z7D3 25-259).
T1 construct: extracellular domain; Bought protein; also called hB7H4-ECD-his
T1 sequence (looked up): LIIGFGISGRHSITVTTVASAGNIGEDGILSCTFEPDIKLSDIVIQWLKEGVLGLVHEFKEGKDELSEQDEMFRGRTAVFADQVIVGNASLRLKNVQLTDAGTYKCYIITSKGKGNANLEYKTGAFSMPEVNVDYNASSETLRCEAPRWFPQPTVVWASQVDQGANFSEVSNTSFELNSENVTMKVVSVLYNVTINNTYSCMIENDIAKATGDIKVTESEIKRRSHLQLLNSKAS
Put plainly: SPR (Biacore T200), antibody captured on Protein A, B7H4-his as analyte, 1:1 fit. On the procedure: 10×HBS-EP+ (GE Healthcare, #BR-1006-69) was diluted 10-fold and then taken as an experimental buffer. The flow rate was set at 10 μL/min, and Protein A was coupled to 4 channels of a chip CM5 (GE Healthcare, #BR-1005-30) through the following procedures: 1) the injection time was set to 800 s, and a fresh mixture of 50 mM NHS and 200 mM EDC was injected into the 4 channels in a volume ratio of 1:1; 2) Protein A was diluted to 20 μg/mL with sodium acetate (GE Healthcare, #BR-1003-50) at pH 4.5 and injected into each channel for 800 s; and 3) 1 M ethanolamine at pH 8.5 was injected for 800 s to block the remaining active carboxyl groups on the chip surface. After blocking, the instrument was equilibrated with 1×HBS-EP+buffer for 2 hours, and the final coupling level of Protein A was about 2000 RU.
A multi-cycle kinetics mode was set at Biacore T200, and each cycle included antibody capture, analyte binding and chip regeneration. […] Finally, 10 mM glycine-hydrochloric acid at pH 1.5 (GE Healthcare, #BR-1003-54) was injected at the same flow rate for 30 s to regenerate the chip.
The experimental results were analyzed using the Biacore T200 analysis software 2.0, with channel 1 subtracted as a reference channel and a 1:1 kinetic fitting model selected as an analysis model.

Experiment [2] has as its target T2, mouse B7H4 on the cell surface (mouse, UniProt Q7TSP5 25-257).
T2 construct: whole, on cells; also called CHOK1/m B7H4
T2 sequence (looked up): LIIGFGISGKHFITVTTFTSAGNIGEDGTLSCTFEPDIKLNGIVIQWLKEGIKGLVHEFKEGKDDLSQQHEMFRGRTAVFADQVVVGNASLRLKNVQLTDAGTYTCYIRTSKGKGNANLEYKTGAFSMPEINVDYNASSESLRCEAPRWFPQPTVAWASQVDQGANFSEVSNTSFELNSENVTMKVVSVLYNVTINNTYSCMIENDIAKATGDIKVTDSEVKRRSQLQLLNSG
In words: FACS, CHOK1/m B7H4 cells. On the procedure:
(§1) This example is intended to investigate the in vitro binding activity of anti-human B7H4 H2L2 monoclonal antibody to human/cynomolgus monkey/mouse B7H4. Antibody binding experiments at the cellular level were performed using CHOK1 cell line overexpressing human B7H4 (CHOK1/hu B7H4, Harbour BioMed), CHOK1 cell line overexpressing cynomolgus monkey B7H4 (CHOK1/cyno B7H4, Harbour BioMed), CHOK1 cell line overexpressing mouse B7H4 (CHOK1/m B7H4, Harbour BioMed) and SK-BR-3 cell line (ATCC® HTB-30) highly expressing human B7H4. Briefly, CHOK1/hu B7H4 cells, CHOK1/cyno B7H4 cells, CHOK1/m B7H4 cells or SK-BR-3 cells were digested and resuspended with PBS containing 2% BSA. The cell density was adjusted to 1×10⁶ cells/mL. The cells were seeded in a 96-well V-bottom plate (Corning, #3894) at 100 μL/well, followed by the addition of test antibodies diluted in a 3-fold concentration gradient of 2 times the final concentration, each at 100 μL/well. The cells were incubated at 4° C. for 2 h away from light. Thereafter, the cells in each well were rinsed twice with 100 μL of pre-cooled PBS containing 2% BSA, and centrifuged at 500 g at 4° C. for 5 min, and then the supernatant was discarded. […] Finally, the cells in each well were resuspended with 200 μL of pre-cooled PBS containing 2% BSA, and the fluorescence signal values were read using an ACEA Novocyte3000 flow cytometer.
For orientation: In flow cytometry, cells or beads pass a laser one at a time.

The target of experiment [3] is T3, B7-H4 (Acro Biosystems, #B74-H82E2) (UniProt Q7Z7D3 29-258).
T3 construct: Bought protein; also called B7-H4 captured on SA sensor
T3 sequence (looked up): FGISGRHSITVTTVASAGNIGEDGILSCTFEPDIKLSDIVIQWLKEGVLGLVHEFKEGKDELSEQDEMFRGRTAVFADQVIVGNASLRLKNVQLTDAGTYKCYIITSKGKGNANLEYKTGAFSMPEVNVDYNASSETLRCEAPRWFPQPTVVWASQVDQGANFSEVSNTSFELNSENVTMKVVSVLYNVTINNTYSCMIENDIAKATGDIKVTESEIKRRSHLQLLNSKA
Put plainly: BLI epitope competition; 1st Ab = row; competitor (2nd Ab) Control antibody 1; inhibition of the 2nd Ab signal. As for the experimental part:
Step one, acquisition of 100% signal of antibodies: B7-H4 (Acro Biosystems, #B74-H82E2-200 μg) was captured at a capture height of 0.25 nm using an SA sensor (Fortebio, #18-5019). The sensor was equilibrated in a buffer for 120 s and then immersed in each antibody diluted to 100 nM for 240 s, and the final signal of the antibody binding to B7-H4 was recorded as the 100% signal of the antibody. Step two, epitope competition experiment: B7-H4 was captured using an SA sensor at a capture height of 0.25 nm. The sensor was immersed in a primary antibody (at a concentration of 100 nM) for 240 s, and then the SA sensor was immersed in a mixture of the primary and secondary antibodies (both at a final concentration of 100 nM) for 240 s, and the difference in signals after immersion of the sensor in the antibody mixture was recorded as the signal of the antibody as the secondary antibody. The inhibition rate was calculated according to the following formula: […]

Experiment [4] concerns the target T2, mouse B7H4 on the cell surface. Put plainly: FACS, CHOK1/m B7H4 cells. As for the experimental part: as §1
The source holds these as a separate data set.

Like-named read-outs stand apart in the source and are kept apart here.

B1: Control antibody 1 (PR000157) (antibody, V domains shown)
VH: EVQLVQSGAEVKKPGASVKVSCKASGYTFTSYWIGWVRQAPGQGLEWIGDIYPGGGYTNYNEKFKGRVTITRDTSTSTAYLELSSLRSEDTAVYYCARLAGSSYRGAMDSWGQGTLVTVSS
VL: DIQMTQSPSSLSASVGDRVTITCKASQGFNKYVAWYQQKPGKAPKLLIYYTSTLQPGVPSRFSGSGSGRDYTLTISSLQPEDFATYYCLQYGDLLYAFGQGTKVEIKR
notes: Anti-B7H4 IgG1 control antibody from WO2016040724A1; also called 1D11.v1.9varC2
On to B1, for which, in experiment [1], the Kd (commonly the free concentration of one partner at which half of the binding sites on the other are occupied at equilibrium, for simple one-to-one binding) is 4.67 nM; the koff (usually the first-order rate constant of dissociation) was determined as 0.000189 s⁻¹; the kon – broadly, the rate constant with which the complex forms – worked out at 40400 M⁻¹ s⁻¹. For the same molecule, in experiment [2], the response was half-maximal at 1.38 nM (EC50) and the “Maximum MFI” value is 858000 MFI. In experiment [3], the “Competitive inhibition rate (%)” value amounted to 95.3%. In experiment [4], the EC50 – broadly, the concentration that produces a half-maximal response – amounted to 1.73 nM and the “Maximum MFI” value came out at 1.75e+06 MFI.

Source of the values: patent US20230312722A1 (NONA BIOSCIENCES SUZHOU, published 2023).
